Data from publication PMC2799554.

Biological target: Moraxella immunoglobulin (Ig) D binding protein (MID) of M. catarrhalis BBH18, on whole bacteria and on their outer membrane vesicles (OMV) (Moraxella catarrhalis)
Assay: flow cytometry on cells

human IgD, soluble, from serum (natural protein)
percent reduction of bacterial binding to B cells at 150 µg/ml IgD: 40%
